We go through 1 substance from US20190282683A1.

This test deals with Ag85b protein from Mycobacterium tuberculosis (poly-His tagged test protein) (Mycobacterium tuberculosis).

As for “splenocytes of mice injected with Sbi-III-IV-Ag85b (cells without a defined receptor)”, the Secreted IFN-gamma in the tissue culture supernatant (ELISA) turned out to be 4 fold.
